Assay results reported in patent US6906179B2, “Antibody to SNIP1” (The General Hospital Corporation, priority 1999, dated 2005).
Where two headings read alike, the source gives them in different places.

Key:
nigral dopamine neurons = settings: cited from earlier work
SNIP-1 protein level = test: ALK3Q233D-induced degradation of SNIP-1 in transfected COS cells, Western blot; type: cell-based; settings: COS cells transfected with Smad1, DPC4, antizyme and BMP type II and type I (ALK3) receptors, treated with BMP7 (not shown)
Excerpt: The novel Smad1 interactor is a nuclear proteip (termed as Smad1 Nuclear Interactor Protein 1, SNIP-1, SEQ ID No. 3), with a carboxyterminal domain that is highly homologous to the aminoterminus of the nuclear inhibitor of protein phosphatase 1 (NIPP-1) (Wang & Lechleider, unpublished) (FIG. 31A & C). NIPP-1 (VanEynde et al., 1995) is known to be rapidly processed into smaller heat-stable intermediates, a process that may be mediated by proteasome (see Discussion in Jagiello et al., 1995). SNIP-1 is a strong interactor of Smad1, that also binds to both antizyme and HsN3 in the yeast two-hybrid assays (FIG. 311B).
Forty-eight hours after transfection, COS cells were lysed in an equal volume of lysis buffer (300 ul/plate), and the total protein concentration of each sample was measured. No major difference in protein concentration was detected among the lysates. The protein level of SNIP-1 in 100 ug of total protein lysate was determined by Western blot using anti-T7 monoclonal antibody. […] Such a decrease is dependent upon the coexpression of Smad1, DPC4 and antizyme, since replacing each of these three proteins with an unrelated protein (β galactosidase) abolishes such a decrease in ALK3Q233D transfected cells (FIG. 31D, top panel, lanes 9-14). […]

rat sympathetic neurons = test: OP-1 induced dendritic growth of rat sympathetic neurons; type: cell-based; settings: sympathetic neurons
Protocol: If Smad1 and DPC4 signal through proteasome mediated proteolysis, proteasome inhibitors should block the signaling of BMPs. We thus directly tested the effects of the proteasome inhibitors on the signaling pathways of BMPs that signal via Smad1 activation. […] The EC50 for the inhibitory activity of lactacystin was ˜100 nM and maximal effects were obtained with 4-6 hour pretreatments (not shown).
To determine the time course of sensitivity to lactacystin with respect to the signaling pathway of OP-1, lactacystin was added to the media at various time points after the addition of OP-1 (FIG. 32, bottom panel B).

[1] = test system: HsN3 and Smad1 localization; test: Localization of HsN3 and Smad1 in transfected COS cells, confocal microscopy; type: cell-based
Excerpt: Since the activation of BMP type I receptors, either by BMP ligands in the presence of the type II receptor, or by the presence of a point mutation (Q233D), can induce the translocation of Smad1 from the cytoplasm to the nucleus (Hoodless et al., 1996, Wang et al., unpublished data), we examined whether the intracellular localization of the Smad1 interactor HsN3 is also regulated by the constitutively activated BMP type I receptor ALK3Q233D. The localization of endogenous HsN3 in COS cells in the presence or absence of activated Smad1 was studied by immunocytochemistry and confocal microscopy (FIG. 28). In untransfected COS cells, weak signals from endogenous HsN3 were detected in both the cytoplasm and the nucleus, with a monoclonal anti-HsN3 antibody and a FITC-conjugated anti-mouse secondary antibody (FIG. 28A). […]
To directly study how BMPs regulate the localization of HsN3, COS cells were transfected with the wild type BMP type I receptor ALK3 the BMP type II receptor and Smad1. […] In cells not treated with BMP7, the endogenous HsN3 produced a weak signal in both the cytoplasm and the nucleus that was detected with a FITC conjugated secondary antibody (FIG. 28D1), while the expressed Smad1 also produced a signal located throughout the transfected cells that was detected by Rodamine conjugated secondary antibody (FIG. 28D2). […]

B1: GDNF: glial cell line-derived neurotrophic factor, member of the TGF-β superfamily (protein, UniProt P39905 78-211, looked up)
Glial cell line-derived …: SPDKQMAVLPRRERNRQAAAANPENSRGKGRRGQRGKNRGCVLTAIHLNVTDLGLGYETKEELIFRYCSGSCDAAETTYDKILKNLSRNRRLVSDKVGQACCRPIAFDDDLSFLDDNLVYHILRKHSAKRCGCI
For B1, the “nigral cell death and atrophy” value (nigral dopamine neurons; intracerebral administration for 4 weeks following lesioning) is listed as “completely prevented nigral cell death and atrophy” and the “nigral cell death and atrophy” value (nigral dopamine neurons; single 10 μg injection at 1 week post-lesion) is listed as “partial protective effect”.

B2: TGF-β3: TGF-β isoform (protein, UniProt P10600 301-412, looked up)
Transforming growth factor …: ALDTNYCFRNLEENCCVRPLYIDFRQDLGWKWVHEPKGYYANFCSGPCPYLRSADTTHSTVLGLYNTLNPEASASPCCVPQDLEPLTILYYVGRTPKVEQLSNMVVKSCKCS
For B2, the “nigral cell death or atrophy” value (nigral dopamine neurons; similar dosing strategies) is given as “no effect”.

B3: BMP7: OP-1 (BMP7), bone morphogenetic protein, TGF-β family ligand (protein, UniProt P18075 293-431, looked up)
Bone morphogenetic protein 7: STGSKQRSQNRSKTPKNQEALRMANVAENSSSDQRQACKKHELYVSFRDLGWQDWIIAPEGYAAYYCEGECAFPLNSYMNATNHAIVQTLVHFINPETVPKPCCAPTQLNAISVLYFDDSSNVILKKYRNMVVRACGCH
In the case of B3, the “degradation of SNIP-1” value (SNIP-1 protein level) is reported as “degradation of SNIP-1 has also been observed”, the “Smad1 localization upon OP-1 treatment” value (rat sympathetic neurons) is reported as “rapid nuclear translocation of Smad1” and the HsN3 signal ([1]; 30 mins after BMP7 treatment (20 ng/ml)) is reported as “only a nuclear HsN3 signal of increased intensity was detected”. The “endogenous HsN3 and overexpressed Smad1 localization” value ([1]; 60 mins after BMP7 treatment (20 ng/ml)) was “accumulated in the nucleus”.
